In publication PMC11052993, “Functional implication of the homotrimeric multidomain vacuolar sorting receptor 1 (VSR1) from Arabidopsis thaliana” (Scientific Reports, 2024):

Target: the molecule itself
Experiment: crystal structure; space group P2(1)3, one molecule in the asymmetric unit, trimer built by crystallographic three-fold symmetry; 3.5 Å dataset, molecular replacement with PDB 4TJV

B1: luminal domain of vacuolar sorting receptor 1 (VSR1) from Arabidopsis thaliana, residues 1 to 560 (domain or fragment, UniProt P93026 23-560, looked up)
chain: VEKNNLKVTSPDSIKGIYECAIGNFGVPQYGGTLVGTVVYPKSNQKACKSYSDFDISFKSKPGRLPTFVLIDRGDCYFTLKAWIAQQAGAAAILVADSKAEPLITMDTPEEDKSDADYLQNITIPSALITKTLGDSIKSALSGGDMVNMKLDWTESVPHPDERVEYELWTNSNDECGKKCDTQIEFLKNFKGAAQILEKGGHTQFTPHYITWYCPEAFTLSKQCKSQCINHGRYCAPDPEQDFTKGYDGKDVVVQNLRQACVYRVMNDTGKPWVWWDYVTDFAIRCPMKEKKYTKECADGIIKSLGIDLKKVDKCIGDPEADVENPVLKAEQESQIGKGSRGDVTILPTLVVNNRQYRGKLEKGAVLKAMCSGFQESTEPAICLTEDLETNECLENNGGCWQDKAANITACRDTFRGRLCECPTVQGVKFVGDGYTHCKASGALHCGINNGGCWRESRGGFTYSACVDDHSKDCKCPLGFKGDGVKNCEDVDECKEKTVCQCPECKCKNTWGSYECSCSNGLLYMREHDTCIGSGKVG
modifications: N-glycosylation at Asn289 (two N-acetylglucosamine)
notes: signal peptide in the construct; vacuolar sorting receptor 1 (VSR1), Arabidopsis thaliana, luminal part, residues 1 to 560; the model of the structure runs from Phe21 to Ala465 (Ser120-Asp137 disordered); Trimer by crystallographic three-fold symmetry; one molecule in the asymmetric unit; also called AtVSR1; full-length VSR1 luminal domain
stoichiometry N: 3
